Measured values published in patent US20230062712A1 (SILVERBACK THERAPEUTICS, published 2023).

Columns and labels:
rat ASGR1 on CHO-S cells = target: T1, rat ASGR1 on CHO-S cells (rat, UniProt P02706 1-284); experiment: flow cytometry (Guava) on CHO-S cells transfected with rat ASGR1
T1 construct: whole, on cells
T1 sequence (looked up): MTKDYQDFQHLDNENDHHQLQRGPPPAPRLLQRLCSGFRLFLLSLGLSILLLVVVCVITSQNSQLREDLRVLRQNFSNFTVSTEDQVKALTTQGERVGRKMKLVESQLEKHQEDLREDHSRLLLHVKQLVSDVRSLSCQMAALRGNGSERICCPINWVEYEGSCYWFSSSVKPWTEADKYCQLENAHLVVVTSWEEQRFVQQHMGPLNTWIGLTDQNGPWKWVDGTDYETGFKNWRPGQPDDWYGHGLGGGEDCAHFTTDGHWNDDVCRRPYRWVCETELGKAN
Description: Anti-human ASGR1 antibodies of this disclosure were examined for cross-reactivity with Cynomolgus macaque and rat ASGR1. Briefly, sequence encoding Cynomolgus macaque or rat ASGR1 was transiently transfected into CHO-S cells. Transfected cells were before performing cell binding assay. A total of about 1.5×10⁴ transfected cells/well were added to 96-well V-bottom assay plate, incubated at 37° C., 5% CO2 for 48-72 hours, and then washed with culture medium before adding 100 μl of each ASGR1 antibody at different concentrations starting from 100 nM and 3-fold dilutions to a total of eight wells. The cells with antibody were incubated for 40 minutes at 4° C., then washed three times with 200 μl of fresh culture medium. To each well was added 50 μl PE conjugated goat anti-human Fc (SouthernBiotech) at 1:200 dilution in culture medium and then incubated at 4° C. for 20 minutes. After washing the plate once, the treated cells were resuspended in 200 μl culture medium and then the stained cells were analyzed on GUAVA® using Incyte software.

[1] = target: T2, His-tagged rat C-type lectin domain family 10 member A (CLEC10A) extracellular domain (rat) (UniProt P49301); experiment: Octet, His-tagged rat CLEC10A ECD on Penta-His sensors, antibody at 25 µg/mL
T2 sequence (looked up): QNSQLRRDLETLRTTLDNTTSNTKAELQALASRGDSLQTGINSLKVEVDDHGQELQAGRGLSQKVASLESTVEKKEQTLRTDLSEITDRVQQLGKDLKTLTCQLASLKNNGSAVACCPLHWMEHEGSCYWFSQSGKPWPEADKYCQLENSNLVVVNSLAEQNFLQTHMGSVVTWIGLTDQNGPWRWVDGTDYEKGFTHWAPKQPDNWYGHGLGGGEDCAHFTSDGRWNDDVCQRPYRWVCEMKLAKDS

[2] = target: T2, His-tagged rat C-type lectin domain family 10 member A (CLEC10A) extracellular domain (rat); experiment: Octet, biotinylated mAb on streptavidin sensors, monomeric rat CLEC10A ECD from 200 nM in 3x dilutions, bivalent binding model

B1: hzL4L-7 (antibody, V domains shown)
VH: QVQLQESGPGLVKPSQTLSLTCTVSGYSISSDYAWNWIRQHPGKGLEWIGYISYSGSTRYNPSLKSRVTITRDTSKNQFSLKLSSVTAADTAVYYCARRYRYDEGYGMDYWGQGTTVTVSS
VL: DIQMTQSPSSLSASVGDRVTITCRASENIYSNLAWYQQKPGKAPKLLIYAATNLADGVPSRFSGSGSGTDFTLTISSLQPEDFATYYCQHFWGTPPWTFGGGTKVEIK
notes: IgG1 and kappa constant regions
**Q.** Does B1 bind (rat ASGR1 on CHO-S cells)?
**A.** no binding (tested: starting from 100 nM)

B2: ASGR1 mAb-B (antibody, from another filing, V domains shown)
VH: EVQLVESGGGLVKPGGSLRLSCAASGFTFSSYSMNWVRQAPGKGLEWVSSISGSSSYIYYADSVKGRFTISRDNAKNSLYLQMNSLRAEDTAVYFCARGGSRGFDPWGQGTLVTVSS
VL: DIQMTQSPSSLSASVGDRVTITCRASQSITSYLNWYQQKPGKAPKLLIYTASSLQSGVPSRFSGSGSGTDFTLTISSLQPEDFATYYCQQSHSFPFTFGPGTKVDIK
**Q.** With B2 as the binder, how does the Response (nm) [1] read?
**A.** 0.598 nm

**Q.** And the Kd [2]?
**A.** 28.1 nM

B3: hzH8K-1 (antibody, V domains shown)
VH: QVQLQESGPGLVKPSQTLSLTCTVSGGSISSDYAWNWIRQHPGKGLEWIGYRSYRGSTSYNPSLKSRVTISVDTSKNQFSLKLSSVTAADTAVYYCARRGYYGSSSHWYFDVWGQGTTVTVSS
VL: DIQMTQSPSSLSASVGDRVTITCRASENIYSYLAWYQQKPGKAPKLLIYNAKTLAEGVPSRFSGSGSGTDFTLTISSLQPEDFATYYCQHHYGTPLTFGGGTKVEIK
notes: as for B1
**Q.** Does B3 bind (rat ASGR1 on CHO-S cells)?
**A.** no binding (tested: starting from 100 nM)
